Laboratory results as given in patent publication US20250339531A1, “DUX4 POLYPEPTIDES AND NUCLEIC ACIDS FOR TREATING INFLAMMATORY AND AUTOIMMUNE CONDITIONS” (Fred Hutchinson Cancer Center, priority 2021, published 2025).

B1: GNAI2 (protein)
chain: GCTVSAEDKAAAERSKMIDKNLREDGEKAAREVKLLLLGAGESGKSTIVKQMKIIHEDGYSEEECRQYRAVVYSNTIQSIMAIVKAMGNLQIDFADPSRADDARQLFALSCTAEEQGVLPDDLSGVIRRLWADHGVQACFGRSREYQLNDSAAYYLNDLERIAQSDYIPTQQDVLRTRVKTTGIVETHFTFKDLHFKMFDVGGQRSERKKWIHCFEGVTAIIFCVALSAYDLVLAEDEEMNRMHESMKLFDSICNNKWFTDTSIILFLNKKDLFEEKITHSPLTICFPEYTGANKYDEAASYIQSKFEDLNKRKDTKEIYTHFTCATDTKNVQFVFDAVTDVIIKNNLKDCGLF
B2: ATP2B1 (protein)
chain: GDMANNSVAYSGVKNSLKEANHDGDFGITLAELRALMELRSTDALRKIQESYGDVYGICTKLKTSPNEGLSGNPADLERREAVFGKNFIPPKKPKTFLQLVWEALQDVTLIILEIAAIVSLGLSFYQPPEGDNALCGEVSVGEEEGEGETGWIEGAAILLSVVCVVLVTAFNDWSKEKQFRGLQSRIEQEQKFTVIRGGQVIQIPVADITVGDIAQVKYGDLLPADGILIQGNDLKIDESSLTGESDHVKKSLDKDPLLLSGTHVMEGSGRMVVTAVGVNSQTGIIFTLLGAGGEEEEKKDEKKKEKKNKKQDGAIENRNKAKAQDGAAMEMQPLKSEEGGDGDEKDKKKANLPKKEKSVLQGKLTKLAVQIGKAGLLMSAITVIILVLYFVIDTFWVQKRPWLAECTPIYIQYFVKFFIIGVTVLVVAVPEGLPLAVTISLAYSVKKMMKDNNLVRHLDACETMGNATAICSDKTGTLTMNRMTVVQAYINEKHYKKVPEPEAIPPNILSYLVTGISVNCAYTSKILPPEKEGGLPRHVGNKTECALLGLLLDLKRDYQDVRNEIPEEALYKVYTFNSVRKSMSTVLKNSDGSYRIFSKGASEIILKKCFKILSANGEAKVFRPRDRDDIVKTVIEPMASEGLRTICLAFRDFPAGEPEPEWDNENDIVTGLTCIAVVGIEDPVRPEVPDAIKKCQRAGITVRMVTGDNINTARAIATKCGILHPGEDFLCLEGKDFNRRIRNEKGEIEQERIDKIWPKLRVLARSSPTDKHTLVKGIIDSTVSDQRQVVAVTGDGTNDGPALKKADVGFAMGIAGTDVAKEASDIILTDDNFTSIVKAVMWGRNVYDSISKFLQFQLTVNVVAVIVAFTGACITQDSPLKAVQMLWVNLIMDTLASLALATEPPTESLLLRKPYGRNKPLISRTMMKNILGHAFYQLVVVFTLLFAGEKFFDIDSGRNAPLHAPPSEHYTIVFNTFVLMQLFNEINARKIHGERNVFEGIFNNAIFCTIVLGTFVVQIIIVQFGGKPFSCSELSIEQWLWSIFLGMGTLLWGQLISTIPTSRLKFLKEAGHGTQKEEIPEEELAEDVEEIDHAERELRRGQILWFRGLNRIQTQIRVVNAFRSSLYEGLEKPESRSSIHNFMTHPEFRIEDSEPHIPLIDDTDAEDDAPTKRNSSPPPSPNKNNNAVDSGIHLTIEMNKSATSSSPGSPLHSLETSL
B3: IGKV2-40 (protein, UniProt A0A087WW87 20-121, looked up)
Immunoglobulin kappa variable …: EDIVMTQTPLSLPVTPGEPASISCRSSQSLLDSDDGNTYLDWYLQKPGQSPQLLIYTLSYRASGVPDRFSGSGSGTDFTLKISRVEAEDVGVYYCMQRIEFP
B4: PLOD2 (protein)
chain: ADSEKPSSIPTDKLLVITVATKESDGFHRFMQSAKYFNYTVKVLGQGEEWRGGDGINSIGGGQKVRLMKEVMEHYADQDDLVVMFTECFDVIFAGGPEEVLKKFQKANHKVVFAADGILWPDKRLADKYPVVHIGKRYLNSGGFIGYAPYVNRIVQQWNLQDNDDDQLFYTKVYIDPLKREAINITLDHKCKIFQTLNGAVDEVVLKFENGKARAKNTFYETLPVAINGNGPTKILLNYFGNYVPNSWTQDNGCTLCEFDTVDLSAVDVHPNVSIGVFIEQPTPFLPRFLDILLTLDYPKEALKLFIHNKEVYHEKDIKVFFDKAKHEIKTIKIVGPEENLSQAEARNMGMDFCRQDEKCDYYFSVDADVVLTNPRTLKILIEQNRKIIAPLVTRHGKLWSNFWGALSPDGYYARSEDYVDIVQGNRVGVWNVPYMANVYLIKGKTLRSEMNERNYFVRDKLDPDMALCRNAREMGVFMYISNRHEFGRLLSTANYNTSHYNNDLWQIFENPVDWKEKYINRDYSKIFTENIVEQPCPDVFWFPIFSEKACDELVEEMEHYGKWSGGKHHDSRISGGYENVPTDDIHMKQVDLENVWLHFIREFIAPVTLKVFAGYYTKGFALLNFVVKYSPERQRSLRPHHDASTFTINIALNNVGEDFQGGGCKFLRYNCSIESPRKGWSFMHPGRLTHLHEGLPVKNGTRYIAVSFIDP
B5: ATP5F1A (protein)
chain: QKTGTAEMSSILEERILGADTSVDLEETGRVLSIGDGIARVHGLRNVQAEEMVEFSSGLKGMSLNLEPDNVGVVVFGNDKLIKEGDIVKRTGAIVDVPVGEELLGRVVDALGNAIDGKGPIGSKTRRRVGLKAPGIIPRISVREPMQTGIKAVDSLVPIGRGQRELIIGDRQTGKTSIAIDTIINQKRFNDGSDEKKKLYCIYVAIGQKRSTVAQLVKRLTDADAMKYTIVVSATASDAAPLQYLAPYSGCSMGEYFRDNGKHALIIYDDLSKQAVAYRQMSLLLRRPPGREAYPGDVFYLHSRLLERAAKMNDAFGGGSLTALPVIETQAGDVSAYIPTNVISITDGQIFLETELFYKGIRPAINVGLSVSRVGSAAQTRAMKQVAGTMKLELAQYREVAAFAQFGSDLDAATQQLLSRGVRLTELLKQGQYSPMAIEEQVAVIYAGVRGYLDKLEPSKITKFENAFLSHVVSQHQALLGTIRADGKISEQSDAKLKEIVTNFLAGFEA
B6: JSRP1 (protein)
chain: MSMTTRAWEELDGGLGSCQALEDHSALAETQEDRASATPRLADSGSVPHDSQVAEGPSVDTRPKKMEKEPAARGTPGTGKERLKAGASPRSVPARKKAQTAPPLQPPPPPPALSEELPWGDLSLNKCLVLASLVALLGSAFQLCRDAVPGEAALQARVPEPWVPPSSAPREPSSPLPKFEAQAPPSAPPAPRAEAEVRPKIPGSREAAENDEEEPGEATGEAVREDRVTLADRGPKERPRREGKPRKEKPRKEERPKKERPRKEERPRAAREPREALPQRWESREGGHRPWARDSRDAEPRKKQAWVSPRRPDEEQRPGSRQKLRAGKGRD
B7: NCEH1 (protein)
chain: MRSSCVLLTALVALAAYYVYIPLPGSVSDPWKLMLLDATFRGAQQVSNLIHYLGLSHHLLALNFIIVSFGKKSAWSSAQVKVTDTDFDGVEVRVFEGPPKPEEPLKRSVVYIHGGGWALASAKIRYYDELCTAMAEELNAVIVSIEYRLVPKVYFPEQIHDVVRATKYFLKPEVLQKYMVDPGRICISGDSAGGNLAAALGQQFTQDASLKNKLKLQALIYPVLQALDFNTPSYQQNVNTPILPRYVMVKYWVDYFKGNYDFVQAMIVNNHTSLDVEEAAAVRARLNWTSLLPASFTKNYKPVVQTTGNARIVQELPQLLDARSAPLIADQAVLQLLPKTYILTCEHDVLRDDGIMYAKRLESAGVEVTLDHFEDGFHGCMIFTSWPTNFSVGIRTRNSYIKWLDQNL
B8: AHCYL1 (protein)
chain: SMPDAMPLPGVGEELKQAKEIEDAEKYSFMATVTKAPKKQIQFADDMQEFTKFPTKTGRRSLSRSISQSSTDSYSSAASYTDSSDDEVSPREKQQTNSKGSSNFCVKNIKQAEFGRREIEIAEQDMSALISLRKRAQGEKPLAGAKIVGCTHITAQTAVLIETLCALGAQCRWSACNIYSTQNEVAAALAEAGVAVFAWKGESEDDFWWCIDRCVNMDGWQANMILDDGGDLTHWVYKKYPNVFKKIRGIVEESVTGVHRLYQLSKAGKLCVPAMNVNDSVTKQKFDNLYCCRESILDGLKRTTDVMFGGKQVVVCGYGEVGKGCCAALKALGAIVYITEIDPICALQACMDGFRVVKLNEVIRQVDVVITCTGNKNVVTREHLDRMKNSCIVCNMGHSNTEIDVTSLRTPELTWERVRSQVDHVIWPDGKRVVLLAEGRLLNLSCSTVPTFVLSITATTQALALIELYNAPEGRYKQDVYLLPKKMDEYVASLHLPSFDAHLTELTDDQAKYLGLNKNGPFKPNYYRY
B9: RBBP7 (protein)
chain: ASKEMFEDTVEERVINEEYKIWKKNTPFLYDLVMTHALQWPSLTVQWLPEVTKPEGKDYALHWLVLGTHTSDEQNHLVVARVHIPNDDAQFDASHCDSDKGEFGGFGSVTGKIECEIKINHEGEVNRARYMPQNPHIIATKTPSSDVLVFDYTKHPAKPDPSGECNPDLRLRGHQKEGYGLSWNSNLSGHLLSASDDHTVCLWDINAGPKEGKIVDAKAIFTGHSAVVEDVAWHLLHESLFGSVADDQKLMIWDTRSNTTSKPSHLVDAHTAEVNCLSFNPYSEFILATGSADKTVALWDLRNLKLKLHTFESHKDEIFQVHWSPHNETILASSGTDRRLNVWDLSKIGEEQSAEDAEDGPPELLFIHGGHTAKISDFSWNPNEPWVICSVSEDNIMQIWQMAENIYNDEESDVTTSELEGQGS
B10: AP2M1 (protein)
chain: MIGGLFIYNHKGEVLISRVYRDDIGSRQAADSAVFSSSGPFPGEWLEANRRNAVDAFRVNVIHARQQVRSPVTNIARTSFFHVKRSNIWLAAVTKQNVNAAMVFEFLYKMCDVMAAYFGKISEENIKNNFVLIYELLDEILDFGYPQNSETGALKTFITQQGIKSQHQTKEEQSQITSQVTGQIGWRREGIKYRRNELFLDVLESVNLLMSPQGQVLSAHVSGRVVMKSYLSGMPECKFGMNDKIVIEKQGKGTADETSKSGKQSIAIDDCTFHQCVRLSKFDSERSISFIPPDGEFELMRYRTTKDIILPFRVIPLVREVGRTKLEVKVVIKSNFKPSLLAQKIEVRIPTPLNTSGVQVICMKGKAKYKASENAIVWKIKRMAGMKESQISAEIELLPTNDKKKWARPPISMNFEVPFAPSGLKVRYLKVFEPKLNYSDHDVIKWVRYIGRSGIYETRC

The molecules below were run on proteins that co-immunoprecipitated with DUX4-CTD constructs expressed in MB135 myoblasts (assay: LC-MS of proteins co-immunoprecipitated with DUX4-CTD (Table 1) and western validation). Conditions: LC-MS value per protein co-immunoprecipitated from MB135 myoblasts; + IFNG mix sample (no Dox); kind of count not given.
Assay type: binding, human
Parameters: key to 4. mL1dL2 + Dox + IFNG / 4. + IFNG mix / 4. longCTD + Dox + IFNG / 3. + IFNg + Dox longCTD / 3. + Dox longCTD / 3. + IFNG longCTD: peptide-spectrum matches (PSMs) per protein
Method in brief: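 Two independent experiments compared uninduced, doxycycline and doxycycline+IFNG MB135iDUX4-CTD (plus MB135iDUX4mL1dL2) myoblasts. Anti-FLAG pulldowns (3 h, 4 °C) were eluted in LDS buffer for western validation or with FLAG peptide for trypsin digestion and Orbitrap LC-MS; hits needed ≥2 PSMs in both experiments, ranked by total PSMs.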

Compared with B1, B2 is higher in “4. + IFNG mix” value: 7 for the first, 10 for the second.

Compared with B3, B4 is higher in “4. + IFNG mix” value: 5 for the first, 7 for the second.

With B5 the “4. + IFNG mix” value was 6.

Same assay, conditions: LC-MS value per protein co-immunoprecipitated with DUX4-CTD construct mL1dL2 in MB135 myoblasts; + Dox + IFNG; kind of count not given

B6 and B7 are the same in “4. mL1dL2 + Dox + IFNG” value: 1 for the first, 1 for the second.

Going from B1 to B8, the “4. mL1dL2 + Dox + IFNG” value falls from 10 to 1.

Going from B9 to B2, the “4. mL1dL2 + Dox + IFNG” value falls from 16 to 11.

First: B3
Second: B4
The “4. mL1dL2 + Dox + IFNG” value of the first is lower: 1 for the first, 8 for the second.

First: B5
Second: B10
The “4. mL1dL2 + Dox + IFNG” value of the first is higher: 4 for the first, 1 for the second.
